Measured values: US20250297004A1, “NECTIN-4 BINDING AGENTS” (INNATE PHARMA, priority 2022, published 2025)
Entries after “also recorded” stand apart in the source; their conditions may differ.

T1: wild-type human Nectin-4 protein (Nectin4-His-BirA) (Homo sapiens, UniProt Q96NY8)
T1 construct: human Nectin4-His-BirA protein diluted to 5 μg/mL in Kinetic buffer 10× were captured onto the biosensors; BirA (biotinylation acceptor tag) (C)
T1 sequence (Q96NY8 with tags, fused parts or gaps): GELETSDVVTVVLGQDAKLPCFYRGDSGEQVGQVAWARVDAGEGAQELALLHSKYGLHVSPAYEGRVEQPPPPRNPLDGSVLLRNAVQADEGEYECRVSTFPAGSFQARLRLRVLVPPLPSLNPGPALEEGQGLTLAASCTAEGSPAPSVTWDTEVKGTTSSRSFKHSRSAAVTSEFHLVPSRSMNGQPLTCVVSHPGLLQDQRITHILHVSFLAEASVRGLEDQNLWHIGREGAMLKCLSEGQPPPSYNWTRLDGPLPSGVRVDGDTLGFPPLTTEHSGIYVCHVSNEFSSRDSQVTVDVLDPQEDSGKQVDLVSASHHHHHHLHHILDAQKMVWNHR

T2: human Nectin-4 Mutant 3 (A76S/Q77R/E78A/S91N) (Homo sapiens, UniProt Q96NY8, A76S/E78A/Q77R/S91N)
T2 construct: expressed in transfected cells; host or cells: HEK293T
T2 sequence (Q96NY8 32-510 A76S/Q77R/E78A/S91N): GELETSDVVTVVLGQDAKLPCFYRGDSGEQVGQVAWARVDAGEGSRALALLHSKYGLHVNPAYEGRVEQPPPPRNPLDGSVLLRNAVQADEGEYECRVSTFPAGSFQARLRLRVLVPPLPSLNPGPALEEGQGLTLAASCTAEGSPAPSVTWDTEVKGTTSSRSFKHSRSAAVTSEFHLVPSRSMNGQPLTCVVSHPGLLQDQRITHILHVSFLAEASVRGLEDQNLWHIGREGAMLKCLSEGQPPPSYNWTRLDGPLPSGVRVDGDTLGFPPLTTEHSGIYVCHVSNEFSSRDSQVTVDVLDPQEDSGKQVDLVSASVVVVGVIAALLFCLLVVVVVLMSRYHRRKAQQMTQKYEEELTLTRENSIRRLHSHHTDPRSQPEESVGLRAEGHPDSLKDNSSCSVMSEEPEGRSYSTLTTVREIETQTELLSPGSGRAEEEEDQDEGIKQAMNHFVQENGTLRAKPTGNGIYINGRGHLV

T3: human Nectin-4 Mutant 4 (human, UniProt Q96NY8 32-510)
T3 construct: Expressed on transfected HEK293T cells; also called A72P/G73N/G75S
T3 chain: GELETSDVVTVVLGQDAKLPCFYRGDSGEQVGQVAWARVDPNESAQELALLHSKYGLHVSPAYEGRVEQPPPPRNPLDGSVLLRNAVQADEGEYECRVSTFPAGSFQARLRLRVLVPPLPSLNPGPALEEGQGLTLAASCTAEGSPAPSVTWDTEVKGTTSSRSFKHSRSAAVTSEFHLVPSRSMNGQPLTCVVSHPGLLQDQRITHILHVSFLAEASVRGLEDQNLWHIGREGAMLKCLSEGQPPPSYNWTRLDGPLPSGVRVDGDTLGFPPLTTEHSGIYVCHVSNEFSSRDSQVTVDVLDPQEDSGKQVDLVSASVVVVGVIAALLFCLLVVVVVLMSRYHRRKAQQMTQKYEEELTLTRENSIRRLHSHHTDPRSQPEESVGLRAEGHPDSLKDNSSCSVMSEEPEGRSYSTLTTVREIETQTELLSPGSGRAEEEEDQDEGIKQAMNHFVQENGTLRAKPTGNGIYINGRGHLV


Experiments:
[1] = test system: SUM190 cells subcutaneously engrafted in CB17-SCID mice; assay: In vivo efficacy of ggfg-Dxd ADCs, Nectin-4 low/SUM190 mouse model of human breast cancer; conditions: single i.v. injection 3 mg/kg, each antibody conjugated to ggfg-Dxd, DAR=8, FIG. 4
Description: SUM190 cells were subcutaneously engrafted in CB17-SCID immunodeficient mice at a dose of 0.5 million cells in 100 μl of Matrigel with growth factor diluted at ½ in PBS. When tumors reached a volume between 195 and 250 mm3, mice were randomized into groups of 9 mice for intravenous treatment with a single injection of 3 mg/kg of camptothecin ADCs. Tumor growths were followed twice a week. Kaplan Meier survival curves were established by using GraphPad Prism V7 software according to the following criteria: When the tumor volume reached 1500 mm3, mice were euthanized and considered dead on the day of sacrifice (D).

[2] = target: T1, wild-type human Nectin-4 protein (Nectin4-His-BirA); assay: Epitope mapping by competition for binding to Nectin-4 (SPR/OCTET); conditions: listed as antibody = 1st mAb injected; 10 μg/mL each
Description: Briefly, human Nectin4-His-BirA protein diluted to 5 μg/mL in Kinetic buffer 10× were captured onto the biosensors. The first antibody was injected diluted to 10 μg/mL in Kinetic buffer 10×, followed by a second injection of the first antibody diluted to 10 μg/mL in Kinetic buffer 10× in order to saturate the signal. The second antibody was injected diluted to 10 μg/mL in Kinetic buffer 10×.
Squares with “O” indicate substantial or direct competition between the 1st and 2nd antibody (1st antibody prevents/causes loss of binding of 2nd antibody), squares with “X” indicate potential partial competition (1st antibody causes a potential reduction but not loss of binding of 2nd antibody), squares with “N/A” indicate no competition.

[3] = target: T2, human Nectin-4 Mutant 3 (A76S/Q77R/E78A/S91N); assay: Epitope mapping using Nectin-4 point mutants; type: binding
From the text: Combined with the published structures of the Nectin-4 domains, Nectin-4 mutations at surface exposed amino acids residues were designed. Nectin-4 domain structure was modelled based on Protein Data Bank reference: 4FRW (domains V et C1). Human Nectin-4 used was NCBI Reference Sequence: NP_112178.2, mouse Nectin-4 used was NCBI Reference Sequence: AAL79833.1, cynomolgus Nectin-4 used was NCBI Reference Sequence: XP_005541277.1, rat Nectin-4 used was NCBI Reference Sequence: NP_001102546.1. The cells expressing the Nectin-4 mutants are then be used for testing anti-Nectin-4 antibodies for loss of binding to different Nectin-4 mutants to identify antibodies that bind to the same site on Nectin-4. […] FIGS. 8A and 8B show different view of a molecular model of the human Nectin-4 protein, indicating the position of substituted residues in mutants 1, 2, 3, 4, 5, 6, 7, 8 and 9.
Nectin-4 mutants were generated by PCR. The sequences amplified were run on agarose gel and purified using the Macherey Nagel PCR Clean-Up Gel Extraction kit. The purified PCR products generated for each mutant were then ligated into an expression vector, with the ClonTech InFusion system. The vectors containing the mutated sequences were prepared as Miniprep and sequenced. After sequencing, the vectors containing the mutated sequences were prepared as Midiprep using the Promega PureYield™ Plasmid Midiprep System. HEK293T cells were grown in DMEM medium (Invitrogen), transfected with vectors using Invitrogen's Lipofectamine 2000 and incubated at 37° C. in a CO2 incubator for 48 hours prior to testing for transgene expression. The targeted amino acid mutations are shown in Table 13 below, listing the residue present in wild-type Nectin-4/position of residue/residue present in mutant Nectin-4, with position reference being to the Nectin-4 protein with leader peptide shown in SEQ ID NO: 1.
(+) means that antibodies-Nectin-4 association occurs.

human Nectin-4 Mutant 4 = target: T3, human Nectin-4 Mutant 4; assay: binding to HEK293T cells expressing Nectin-4 mutant

Molecule	control of tumor growth [1]	competition, 2nd mab injected: 14A5 [2]	competition, 2nd mab injected: MABT64 [2]	competition, 2nd mab injected: N41 [2]	association with Mutant 3 [3]	binding result (human Nectin-4 Mutant 4)	control of tumor growth ([1]; 3 mg/kg)	competition, 2nd mab injected: 5E7 [2]
N41 (antibody, V domains shown) VH: QVQLKQSGPGLVQPSQSLSITCTVSGFSLTNYGVHWVRQSPGKGLEWLGVIWSGGSTDYNAAFISRLSISKDTSKSQVFFKMNSLQADDTAIYYCARELIHAMDNWGQGTSVTVSS VL: DIQMTQSPASLSVSVGETVTITCRASENIYSNLAWYQQKQGNSPQLLVFAATNLADGVPSRFSGSGSGTQYSLKINSLQSEDFGTYYCQHFWGTPTFGGGTKLEIK	no longer showed the ability to control tumor growth	◯	◯	◯	+	binds		
5E7 (antibody, V domains shown) VH: QVQLQQPGAELVKPGASVKLSCKASGYIFTSYWMHWVKQRPGQGLEWIGEIDPSDSYTNYNQKFKGKATLTLDKSSSTTYMQLSSLTSEDSAVYYCVRGYGNYGDYWGQGTTLTVSSASTKGP VL: DVVMTQAAFSNPVTLGTSASISCRSSKSLLHSNGITYLYWYLQKPGQSPQLLIYQMSNLASGVPDRFSSSGSGTDFTLRISRVEAEDVGVYYCAQNLELPWTFGGGTKLEIKRTVAAP					+		strong ability to prevent tumor growth; also recorded: able to effectively control tumor growth	◯
chimeric parental 5E7 antibody (antibody, V domains shown, Chimeric antibody, murine variable domains with human constant regions; also called ch5E7; CHG1-M-1N4-5E7) VH: QVQLQQPGAELVKPGASVKLSCKASGYIFTSYWMHWVKQRPGQGLEWIGEIDPSDSYTNYNQKFKGKATLTLDKSSSTTYMQLSSLTSEDSAVYYCVRGYGNYGDYWGQGTTLTVSS VL: DVVMTQAAFSNPVTLGTSASISCRSSKSLLHSNGITYLYWYLQKPGQSPQLLIYQMSNLASGVPDRFSSSGSGTDFTLRISRVEAEDVGVYYCAQNLELPWTFGGGTKLEIKR						binds		
